# Experimental data published in patent publication US20240182592A1 (CHIA TAI TIANQING PHARMACEUTICAL GROUP, published 2024).
# Substitutions are numbered along the chain they refer to.
# T1: human BCMA on cells (human, UniProt Q02223 1-184)
# T1 construct: whole, on cells; also called CHO-hBCMA cells; U266 cells
# T1 sequence (looked up): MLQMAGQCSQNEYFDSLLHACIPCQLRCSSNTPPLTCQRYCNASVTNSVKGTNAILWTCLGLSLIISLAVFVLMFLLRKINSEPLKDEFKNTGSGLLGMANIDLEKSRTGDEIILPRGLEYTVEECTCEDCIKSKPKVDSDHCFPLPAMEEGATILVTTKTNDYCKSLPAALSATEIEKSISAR
# T2: human BCMA-His (ACRO, product catalog No. BCA-H522y) (human, UniProt Q02223 1-54, biotin-conjugated in the ELISAs of Examples 5 and 6.1 (site not stated))
# T2 construct: Bought protein; also called BCMA-His protein; biotin-conjugated recombinant BCMA-His protein; not shown: His tag
# T2 sequence (looked up): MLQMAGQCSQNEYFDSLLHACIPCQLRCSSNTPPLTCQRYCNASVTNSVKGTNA
# T3: human TACI protein (human, UniProt O14836 2-166, limits assumed)
# T3 sequence (looked up): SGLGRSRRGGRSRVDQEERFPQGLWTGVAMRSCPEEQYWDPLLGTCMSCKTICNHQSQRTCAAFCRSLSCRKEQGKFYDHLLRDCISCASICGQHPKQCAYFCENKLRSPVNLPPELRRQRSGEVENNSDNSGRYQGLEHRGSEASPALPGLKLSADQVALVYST
# T4: human BCMA protein (human, UniProt Q02223 1-54, limits assumed)
# T4 construct: also called hBCMA; Antigen BCMA
# T4 sequence (looked up): T2 sequence (looked up)
# B1: 1A1-Fc (antibody, human IgG1, V domains shown)
# VH: QVQLVESGGGSVQAGGSLRLSCTASGYTFRGWNKHWYRQAPGKERELVSSIFRDGKTAYTDSVKGRFTISQDNADATVYLQMNSLKPEDTAMYYCKYDLPGSGLPAFWGQGTLVTVSS
# notes: Camel VHH fused to human IgG1 Fc; also called anti-human BCMA VHH-Fc chimeric antibody 1A1-Fc
# B2: 1B10-Fc (antibody, human IgG1, V domains shown)
# VH: B1 VH with Q1E, N73S, A106E
# notes: Camel VHH fused to human IgG1 Fc; also called anti-human BCMA VHH-Fc chimeric antibody 1B10-Fc
# B3: 1A10-Fc (antibody, human IgG1, V domains shown)
# VH: QVQLVESGGGSVQAGGSLRLSCAASGYSSNVACMAWYRQAPGKEREWVATIVADFGTTNYAASVKGRFTISQDNAKNTVYLQMNSLKPEDSAMYYCAATQRGGIDWCDEINYWGQGTLVTVSS
# notes: also called anti-human BCMA VHH-Fc chimeric antibody 1A10-Fc
# B4: 1A11-Fc (antibody, human IgG1, V domains shown)
# VH: QVQLVESGGGSVQAGGSLRLSCAASGVTFNSACMGWFRQAPGKEREGVARIETGYGGTVYADSVKGRFTISRDNAKNTVYLQMNSLKPEDTAMYYCAAKRSWCTPTWWHELDYNYWGQGTQVTVSS
# notes: also called anti-human BCMA VHH-Fc chimeric antibody 1A11-Fc
# Molecular target: T1, human BCMA on cells
# Test: flow cytometry, CHO-hBCMA cells
# From the text: (§1) The binding of the anti-human BCMA VHH-Fc chimeric antibodies to target cells with different BCMA expression levels was detected by flow cytometry. The CHO-hBCMA cells (iCarTab Biotechnology (Suzhou) Co. Ltd., product catalog No. AKD001A) were a stably transfected cell line highly expressing BCMA. The U266 cells (Cell Culture Center, Institute of Basic Medical Sciences, Chinese Academy of Medical Sciences, product catalog No. 3111C0001CCC000684) were a natural human myeloma cell line expressing BCMA at medium levels. The PRMI8226 cells (Cell Culture Center, Institute of Basic Medical Sciences, Chinese Academy of Medical Sciences, product catalog No. 3111C0001CCC000083) were a natural human myeloma cell line expressing BCMA at low levels. The HUVEC cells (ScienCell Research Laboratories, product catalog No. […] 8000) were a human umbilical vein endothelial cell line not expressing BCMA. […] A PE-labeled anti-human IgG Fc antibody (Jackson Immuno Rescarch, product catalog No. 109-116-170) was added, and the mixture was incubated on ice for 0.5 h. The cells were washed and then tested using a flow cytometer (Thermo Fisher Scientific Inc., Attune NXT).
row,Binder,EC50 [nM]
1,B1,3.04
2,B2,2.51
3,B3,4.28
4,B4,2.08

# Molecular target: T2, human BCMA-His (ACRO, product catalog …)
# Test: competition ELISA (chessboard), biotin-BCMA-His; competitor: 1A10-Fc
# Method: (§2) The anti-human BCMA VHH-Fc chimeric antibodies were diluted to 2 μg/mL and allowed to coat a high-adsorption microplate. The plate was washed and then blocked. […] According to a chessboard arrangement, the incubated mixtures of antigen and antibody or the biotin-conjugated BCMA-His protein alone (control group) were added in sequence to the well plate at 100 μL/well. The plate was incubated at 37° C. for 1 h. The plate was washed to remove unbound biotin-conjugated recombinant BCMA-His protein. HRP-conjugated streptavidin (eBioscience, product catalog No. 18-4100-51) was added, and the plate was washed 5 times and then subjected to color development. The light absorption signal values at the wavelength of 450 nm and the reference wavelength of 650 nm were measured. The blocking rate of one antibody for the binding signal of another antibody to BCMA-Bio was calculated according to the formula blocking rate=(signal value of control group−signal value of sample group)/signal value of control group×100%. Positive control groups in which antibodies competed with themselves are shown on the diagonal line “\” of the chessboard (indicated in gray).
row,Binder,blocking rate [%]
1,B1,7.6
2,B2,26.7
3,B4,21.6

# Molecular target: T5, cynomolgus monkey BCMA on transiently transfected HEK293T cells (cynomolgus monkey, UniProt Q02223 1-184 (human entry))
# T5 construct: it may be a nucleotide entry; also called HEK293T-CynoBCMA
# T5 sequence (Q02223 other isoform, or with tags, fused parts or gaps): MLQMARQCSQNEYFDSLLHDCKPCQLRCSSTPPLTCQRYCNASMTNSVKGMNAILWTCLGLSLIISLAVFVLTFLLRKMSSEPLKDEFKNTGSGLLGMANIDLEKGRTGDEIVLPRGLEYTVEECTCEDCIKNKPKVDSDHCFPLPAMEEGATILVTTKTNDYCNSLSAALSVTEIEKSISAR
# Test: flow cytometry, HEK293T cells transiently transfected with cynomolgus monkey BCMA
# From the text: The cells were washed and then tested using a flow cytometer (Thermo Fisher Scientific Inc., Attune NXT).
row,Binder,EC50 [nM]
1,B3,2.02
2,B4,10.4

# Molecular target: T2, human BCMA-His (ACRO, product catalog …)
# Test: competition ELISA (chessboard), biotin-BCMA-His; competitor: 1B10-Fc
# Method: as §2
row,Binder,blocking rate [%]
1,B1,101
2,B3,46.4
3,B4,99.4

# Molecular target: T2, human BCMA-His (ACRO, product catalog …)
# Test: competitive ELISA: antibody blocks binding of biotin-BCMA-His to coated APRIL
# Method: The plate was incubated at 37° C. for 1 h and then washed to remove unbound biotin-conjugated recombinant BCMA-His protein. HRP-conjugated streptavidin (eBioscience, product catalog No. 18-4100-51) was added, and the plate was washed 5 times and then subjected to color development. The light absorption signal values at the wavelength of 450 nm and the reference wavelength of 650 nm were measured.
row,Binder,IC50 [nM]
1,B1,0.34
2,B2,0.26
3,B3,0.41
4,B4,0.76

# Molecular target: T3, human TACI protein
# Test: SPR (Biacore T200), antibody captured by anti-hIgG (Fc)
# Method: (§3) The anti-human BCMA VHH-Fc chimeric antibodies were tested for specificity using a biomolecular interaction analysis system (GE, Biacore T200). An anti-hIgG (Fc) antibody (GE, product catalog No. BR-1008-39) was amino-coupled to a CM5 sensor chip. The anti-human BCMA VHH-Fc chimeric antibodies were diluted to 2 μg/mL with a running buffer (137 mM NaCl, 2.7 mM KCl, 10 mM Na₂HPO₄.12H₂O, 1.8 mM KH₂PO₄, 0.05% surfactant P-20 (w/v), pH 7.4), and capture was allowed for 90 s by passing the dilutions through experimental channels at a flow rate of 30 μL/min. Human TACI or BAFF-R protein was diluted to 100 nM with the running buffer, and binding was allowed by passing the dilution at a flow rate of 50 μL/min. The binding signal curve was observed.
row,Binder,binding result
1,B1,no binding (tested: 100 nM)
2,B2,no binding (tested: 100 nM)
3,B3,no binding (tested: 100 nM)
4,B4,no binding (tested: 100 nM)

# Molecular target: human BAFF-R protein (human, UniProt Q96RJ3 7-71, limits assumed)
# Sequence (Q96RJ3 7-71 limits assumed): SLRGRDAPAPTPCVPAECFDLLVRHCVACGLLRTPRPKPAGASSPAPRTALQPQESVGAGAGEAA
# Test: as above
# Method: as §3
row,Binder,binding result
1,B1,no binding (tested: 100 nM)
2,B2,no binding (tested: 100 nM)
3,B3,no binding (tested: 100 nM)
4,B4,no binding (tested: 100 nM)

# Molecular target: T2, human BCMA-His (ACRO, product catalog …)
# Test: competition ELISA (chessboard), biotin-BCMA-His; competitor: 1A11-Fc
# Method: as §2
row,Binder,blocking rate [%]
1,B1,99.4
2,B2,99.5
3,B3,32.6

# Molecular target: T1, human BCMA on cells
# Test: flow cytometry, U266 cells
# From the text: as §1
row,Binder,EC50 [nM]
1,B1,2.77
2,B2,1.72
3,B3,4.64
4,B4,1.26

# Molecular target: T2, human BCMA-His (ACRO, product catalog …)
# Test: competition ELISA (chessboard), biotin-BCMA-His; competitor: 1A1-Fc
# Method: as §2
row,Binder,blocking rate [%]
1,B2,100
2,B3,36.9
3,B4,101

# Molecular target: cynomolgus monkey BCMA protein (cynomolgus monkey, UniProt A0A2K5UD97 1-53)
# Sequence (A0A2K5UD97 entry or part of it limits assumed): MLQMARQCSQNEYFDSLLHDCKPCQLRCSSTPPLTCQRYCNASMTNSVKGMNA
# Test: SPR (Biacore T200)
row,Binder,binding result
1,B1,no binding
2,B2,no binding

# Molecular target: T4, human BCMA protein
# Test: SPR (Biacore T200), antibody captured by anti-hIgG, human BCMA as analyte, 1:1 model
# Method: The affinity of the test antibody for human BCMA protein was determined by Biacore T200 (GE) as follows:
# The response signals were detected in real time using Biacore software, and association and dissociation curves were obtained. The buffer used in the experiment was Biacore universal buffer (137 mM NaCl, 2.7 mM KCl, 10 mM Na₂HPO₄.12H₂O, 1.8 mM KH₂PO₄, 0.05% surfactant P-20 (w/v), pH 7.4). […] The flow rate in the flow cell was at 50 μL/min, the association was performed for 240 s, the dissociation was performed for 1400 s, the regeneration was performed using 3 M MgCl₂ (GE) for 60 s, and the baseline was stable. Results were obtained by calculation according to the affinity and kinetics 1:1 binding mode in biacore evaluation software.
row,Binder,Kd [nM]
1,B3,0.94
2,B4,3.96
